Reference: patent publication US9328334B2, “Luciferase derived from lucidina accensa” (OLYMPUS CORPORATION, priority 2011, dated 2016)
Entries after “also recorded” stand apart in the source; their conditions may differ.

Assays:
[1] = Stability against degradation: SDS-polyacrylamide gel electrophoresis of lysate of E. coli expressing each luciferase (Example 4); settings: lysate of E. coli BL21 (DE3) CodonPlus expressing the luciferase
Experimental: Stability against degradation was determined for the wild type luciferase derived from L. accensa in comparison with a known luciferase derived from L. biplagiata.
The above three genes were introduced into an expression vector and expressed in E. coli. The expression was carried out in the same manner as the Example 2 except that BL21 (DE3) CodonPlus (manufactured by Stratagene Corporation) was used as E. coli strain and the cells were cultured appropriately.
The lysate was prepared from the E. coli expressing each gene, and then subjected to SDS-polyacrylamide gel electrophoresis. It was confirmed that, as a band with the biggest size, a single band is present near 70 kDa for all three kinds of protein. […] Meanwhile, in the luciferase derived from L. biplagiata (i.e., left and right lanes), several bands with a size smaller than 70 kDa were identified.

HeLa cells = assay: Luminescence intensity of luciferase expressed in HeLa cells, comparison with L. biplagiata luciferase (Example 5); type: cell-based; settings: 37° C.
Description: The luminescence intensity from the light emitting reaction using the wild type luciferase derived from L. accensa (SEQ ID NO: 1) was compared to the luminescence intensity from the light emitting reaction using the luciferase derived from L. biplagiata having the literature sequence (SEQ ID NO: 30) or the luciferase derived from L. biplagiata having the cloned sequence (SEQ ID NO: 31). Further, based on the difference between the literature sequence and the cloned sequence, the amino acid residue at position 249 of the amino acid sequence of the wild type luciferase, i.e., methionine, was changed to lysine to prepare the mutant luciferase (M249K), which was then used for the intensity measurement.
With regard to the four types of the luciferase, a nucleic acid containing a gene optimized for mammalian cell expression was given with a Kozak sequence, and then inserted between SgfI and PmeI sites within the multicloning site of pF9A CMV hRLuc neo Flexi vector (manufactured by Promega). Further, since the pF9A vector contains the luciferase gene derived from Renilla reniformis as an internal control in the vector sequence, it is possible to obtain the luminescence intensity from the luminescent gene inserted to the multicloning site as a ratio compared to the luminescence intensity emitted by the Renilla luciferase.
Four types of luciferase plasmids obtained in such a manner described above were each subjected to gene transfection to HeLa cells inoculated in a 48-well plate by a lipofection method, and 24 hours later, the cells were washed with PBS. To each well of a 48-well plate, 500 μL of 2 mM D-luciferin/CO2 Independent Medium (manufactured by Invitrogen) was added and the luminescence intensity was measured for 90 min by using a Luminescensor (manufactured by ATTO Corporation) under the condition including 37° C. and 1 sec per each well. The luminescence intensity which is obtained at the time point of 90 min after starting the measurement was taken as the luminescence intensity of each luciferase. […] Subsequently, 500 μL of 10 μM coelenterazine/CO2 Independent Medium was added to each well and the luminescence intensity was measured for 30 min by using a Luminescensor under the condition including 37° C. and 1 sec per each well. The luminescence intensity obtained at five minutes after the addition of coelenterazine was taken as luminescence intensity of the Renilla luciferase, which is an internal control. Each of the luminescence intensities from the luciferases was divided by the luminescence intensity of the Renilla luciferase, yielding the luminescence intensity of each luciferase. The measurements were carried out multiple times for each luciferase, and the luminescence intensity was obtained as a mean value.

HeLa cell = assay: Luminescence intensity of luciferase expressed in HeLa cell, comparison with P. pyralis luciferase (Example 3); type: cell-based; settings: 2 mM D-luciferin, 25° C., 90 min after starting measurement
Experimental: Each of the wild type luciferase derived from L. accensa, the mutant luciferase derived from L. accensa (N50D and 1530R), and the luciferase derived from P. pyralis (SEQ ID NO: 33) was expressed in a HeLa cell, and the luminescence intensity was measured and compared to each other.
Further, since the pF9A vector contains the luciferase gene derived from Renilla reniformis as an internal control, it is possible to obtain the luminescence intensity from the luminescent gene inserted to the multicloning site as a ratio compared to the luminescence intensity emitted by the Renilla luciferase.
Three types of plasmids obtained in such a manner described above were each subjected to gene transfection to a HeLa cell, which has been inoculated in a 24-well plate, by a lipofection method, and 24 hours later, the cells were washed with PBS. To each well of a 24-well plate, 500 μL of 2 mM D-luciferin/CO2 Independent Medium (manufactured by Invitrogen) was added and the luminescence intensity was measured for 90 min by using a Luminescensor (manufactured by ATTO Corporation) under the condition including 25° C. and 1 sec per each well. The luminescence intensity which is obtained at the time point of 90 min after starting the measurement was taken as the luminescence intensity of the wild type luciferase, the mutant luciferase, and P. pyralis luciferase. […] Subsequently, 500 μL of 10 μM coelenterazine/CO2 Independent Medium was added to each well and the luminescence intensity was measured for 30 min by using a Luminescensor under the condition including 25° C. and 1 sec per each well. The luminescence intensity obtained at five minutes after the addition of coelenterazine was taken as luminescence intensity of the Renilla luciferase, which is an internal control. Each of the luminescence intensity from the wild type luciferase, the mutant luciferase, and P. pyralis luciferase was divided by the luminescence intensity of the Renilla luciferase, and the results are illustrated as a graph illustrating the luminescence intensity of each luciferase.

[2] = Measurement of light emission spectra of purified luciferase under various pH environments; type: biochemical; settings: light emission spectra at various pH
Experimental: With use of LumiFlSpectroCapture (manufactured by ATTO Corporation) as an apparatus for measurement, to a solution of 0.1 M citric acid/0.1 M Na2HPO4 buffer (pH 5.5 to 8.0) containing 1 mM of D-luciferin, 2 mM of ATP and 4 mM of MgCl2 the purified enzyme was added at a final concentration of 1 μg/mL, and after 15 seconds of addition of the enzyme luminescence spectra was measured. The measurement results were illustrated in FIG. 1.
After that, each of thus-prepared genes (SEQ ID NOs: 38 and 39) was introduced into pRSET-B vector according to the same method as the Example 2. This vector was transformed to E. coli JM109 (DE3) strain to express the mutant luciferase. Subsequently, the mutant luciferase was purified from E. coli. In addition, under various pH environments, the light emission spectrum was measured according to the same method as the Example 2 from a light emitting reaction catalyzed by the mutant luciferase.

[3] = Measurement of Km for D-luciferin; type: biochemical; settings: 0.1 M Tris-HCl pH 8.0, ATP and MgSO4 present
Experimental: Eight types of D-luciferin solution of various concentrations were prepared by adding D-luciferin to 0.1 M Tris-HCl (pH 8.0). These solutions contain D-luciferin at final concentrations of 0.625, 1.25, 2.5, 5, 10, 20, 40, and 80 μM. These D-luciferin solutions were aliquoted into 96-well microplate at a volume of 50 μL each. A solution of 0.1 M Tris-HCl (pH 8.0) containing each of the purified luciferase, 4 mM of ATP, and 8 mM of MgSO4 was connected to the standard pump of the luminometer, and the measurements was carried out at the same time as addition of 50 μL of the solution to the well. A Luminescensor (manufactured by ATTO Corporation) was used for the measurements. Measurements were repeated 3 times for each luciferin concentration.
(§1) The peak intensity of the obtained photon count value was plotted with respect to luciferin concentration S, defining the initial rate as V. The plots were subjected to curve fitting of Michaelis Menten type, thereby giving Km values. The curve fitting was performed by a nonlinear least-squares method, and the search of the parameter was performed by a Newton method.

[4] = Measurement of Km value with respect to ATP; type: biochemical; settings: 0.1 M Tris-HCl pH 8.0, D-luciferin and MgSO4 present
Experimental: Various 8 types of ATP solutions with different concentrations were prepared by adding ATP to 0.1 M Tris-HCl (pH 8.0). These solutions contain ATP at final concentration of 10, 20, 40, 80, 160, 320, 480, and 640 μM. These ATP solutions were aliquoted into a 96-well microplate at a volume of 50 μl each. 0.1 M Tris-HCl (pH 8.0) solution containing each purified luciferase, 1 mM of D-luciferin, and 8 mM of MgSO4 was connected to a standard pump of a luminometer, and the measurement was carried out at the same time as addition of 50 μL of the solution to wells. Measurement was repeated 3 times for each ATP concentration.
as §1, with “peak intensities” for “peak intensity”, “value were” for “value was”, “to ATP” for “to luciferin”, “S, with an” for “S, defining the”, “rate” for “rate as”, “Km value.” for “Km values.”

[5] = system: E. coli JM109 (DE3) strain; assay: Temperature dependency of luminescence intensity: E. coli colonies heat treated at 55° C., CCD image (Example 7); type: cell-based, Escherichia coli; settings: 55° C. for 1 hour, 0.5 mM D-luciferin spray
Experimental: Each of the wild type luciferase gene and two kinds of the mutant gene obtained in the Example 6 was introduced into pRSET-B vector and transformed to E. coli JM109 (DE3) strain to form a colony. Thus-obtained colony was cultured and applied on a LB agar medium to form again the colony for 24 hours. After that, it was subjected to the heat treatment at 55° C. for 1 hour and kept at room temperature for 1 hour. It was then sprayed with a liquid containing 0.5 mM D-luciferin and a photographic image thereof was taken for 1 min by using a CCD camera (trade name: DP70, manufactured by Olympus Corporation).

B1: wild type luciferase: wild type luciferase obtained from Lucidina accensa, amino acid sequence SEQ ID NO: 1 (protein, listed as Lucidina accensa)
chain: MEEDKNILRGPAPFYPLEDGTAGEQLHRAMKRYALIPGTIAFTDAHAGVNITYSEYFEMACRLAESLKRYGLGLQHRIVVCSENSLQFFMPVVGALFIGVGVAPANDIYNERELLNSMTISQPTLVFCSRKGLQKILNVQKKLPVIQKIIILDTKEDYMGFQSMYSFVDSQLPVGFNEYDYVPDSFDRDQATALIMNSSGSTGLPKGVELNHTSVCVRFSHCRDPVYGNQIIPDTAILSVIPFHHGFGMFTTLGYLICGFRVVLMYRFEEELFLRSLQDYKIQSALLVPTLFSFFAKSTLIDKYDLSNLHEIASGGAPLAKEVGEAVAKRFNLRGIRQGYGLTETTSAVIITPEGDDKPGAVGKVVPFFSAKVVDLDTGKTLGVNQRGELCLKGPMIMKGYVNNPEATNALIDKDGWLHSGDISYWDEDGHFFIVDRLKSLIKYKGYQVPPAELESILLQHPFIFDAGVAGIPDDEAGELPAAVVVLEEGKTMTEKEIMDYVAGQVTTAKRLRGGVVFVDEVPKGLTGKIDARKIREILVKVKKTKSKL
stability against protein degradation (bands on stained SDS-PAGE gel) [1]: no other band was identified; also recorded: hardly degraded; also recorded: no degradation occurred
luminescence intensity, mean value (divided by Renilla luciferase intensity) (HeLa cells; 2 mM D-luciferin, 90 min): 3.48
luminescence intensity in comparison to luciferase derived from L. biplagiata having the literature sequence (HeLa cells): ≥ 29 times
luminescence intensity in comparison to mutant luciferase M249K (HeLa cells): ≥ 34.8 times
luminescence intensity (divided by luminescence intensity of Renilla luciferase internal control) (HeLa cell): 7.3
pH environment giving the highest luminescence intensity [2]: 8 pH
Km [3]: 16 µM
Km [4]: 47.6 µM

B2: mutant luciferase (E322W): L. accensa luciferase mutant with E322W, amino acid sequence SEQ ID NO: 36 (protein, listed as Lucidina accensa)
chain: MEEDKNILRGPAPFYPLEDGTAGEQLHRAMKRYALIPGTIAFTDAHAGVNITYSEYFEMACRLAESLKRYGLGLQHRIVVCSENSLQFFMPVVGALFIGVGVAPANDIYNERELLNSMTISQPTLVFCSRKGLQKILNVQKKLPVIQKIIILDTKEDYMGFQSMYSFVDSQLPVGFNEYDYVPDSFDRDQATALIMNSSGSTGLPKGVELNHTSVCVRFSHCRDPVYGNQIIPDTAILSVIPFHHGFGMFTTLGYLICGFRVVLMYRFEEELFLRSLQDYKIQSALLVPTLFSFFAKSTLIDKYDLSNLHEIASGGAPLAKWVGEAVAKRFNLRGIRQGYGLTETTSAVIITPEGDDKPGAVGKVVPFFSAKVVDLDTGKTLGVNQRGELCLKGPMIMKGYVNNPEATNALIDKDGWLHSGDISYWDEDGHFFIVDRLKSLIKYKGYQVPPAELESILLQHPFIFDAGVAGIPDDEAGELPAAVVVLEEGKTMTEKEIMDYVAGQVTTAKRLRGGVVFVDEVPKGLTGKIDARKIREILVKVKKTKSKL
light emission compared to the wild type luciferase at 55° C. [5]: stronger light emission; also recorded: higher luminescence intensity
pH environment giving the highest luminescence intensity [2]: 8.0 pH
